B1: Signal peptidase complex catalytic subunit SEC11 (Saccharomyces cerevisiae), P15367 (parent)
chain: MNLRFELQKLLNVCFLFASAYMFWQGLAIATNSASPIVVVLSGSMEPAFQRGDILFLWNRNTFNQVGDVVVYEVEGKQIPIVHRVLRQHNNHADKQFLLTKGDNNAGNDISLYANKKIYLNKSKEIVGTVKGYFPQLGYITIWISENKYAKFALLGMLGLSALLGGE
partner: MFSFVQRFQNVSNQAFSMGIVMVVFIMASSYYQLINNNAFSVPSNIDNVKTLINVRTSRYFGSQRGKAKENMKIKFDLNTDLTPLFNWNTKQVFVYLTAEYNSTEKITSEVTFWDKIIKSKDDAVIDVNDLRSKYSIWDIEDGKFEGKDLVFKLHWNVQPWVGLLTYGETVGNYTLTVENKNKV

Variants of: B1
Settings: with spc3_yeast SPC3, Q12133

Variant	effect of a mutation on the interaction
MNLRFELQKLLNVCFLFASAYMFWQGLAIATNSASPIVVVLSGSMEPAFQRGDILFLWNRNTFNQVGDVVVYEVEGKQIPIVHRVLRQHNNHADKQFLLTKGNNNAGNDISLYANKKIYLNKSKEIVGTVKGYFPQLGYITIWISENKYAKFALLGMLGLSALLGGE [D103N]	decreasing interaction

Source: IntAct's records for PubMed 10206957
